Positions count from the first letter of the chain named.
B1: CD3B2043 (scFv)
scFv: QVQLVQSGAEVKKPGSSVKVSCKASGYTFTRSTMHWVRQAPGQGLEWIGYINPSSAYTNYNQKFQGRVTLTADKSTSTAYMELSSLRSEDTAVYYCASPQVHYDYNGFPYWGQGTLVTVSSGGSEGKSSGSGSESKSTGGSEIVLTQSPATLSASPGERVTLSCSASSSVSYMNWYQQKPGTAPRRLIYDSSKLASGVPARFSGSGSGRDYTLTISSLEPEDFAVYYCQQWSRNPPTFGGGTKVEIK
B2: CD3B2045 (scFv)
scFv: B1 scFv with T182Q, L187W
B3: CD3B2044 (scFv)
scFv: B1 scFv with T182Q, A183S, L187W
B4: CD3B2069 (scFv)
scFv: B1 scFv with I48M, L187W
B5: CD3B2063 (scFv)
scFv: B1 scFv with R38K, N61A
B6: CD3B2064 (scFv)
scFv: B1 scFv with R38K, N61A, T182Q, A183S, L187W
B7: CD3B2058 (scFv)
scFv: B1 scFv with R38K, N61A, A183S, L187W
B8: CD3B2065 (scFv)
scFv: B1 scFv with R38K, N61A, T182Q, L187W

The binders below were run against T1, CD3 on primary human pan T cells (human, UniProt P07766 23-207) (assay: flow cytometry, pan T-cells).
T1 construct: on cells it stands in the TCR/CD3 complex; also called Pan T-cells (CD3-positive); endogenous CD3
Procedure: ELISA assays for binding to recombinant CD3 (TRCW5, SEQ ID NO: 39) were performed as above. Cell binding was performed using primary human T cell and Jurkat cells by flow cytometry. Briefly, E. coli expressed anti CD3 ScFv supernatants, either at room temperature, or 55° C., 60° C. or 65° C. heat treated samples.
Pan T-cells (CD3-positive) and Jurkat-CD3-negative cells were prepared by staining Jurkat-CD3-negative cells with CFSE while keeping pan T-cells unstained. Jurkat-CD3-negative cell suspensions were resuspended at 20 million cells per each 50 mL conical tube. Cells were harvested by centrifugation at 400×g for 5 minutes and resuspended in DPBS followed by washing 2× in DPBS. Cells were stained with 1:25,000 dilution for a final dye concentration of 0.02 uM CFSE (2 uL of staining solution to 50 mL of cell suspension). Cells were incubated for 10 minutes at room temperature and centrifuged for 5 minutes at 400×g. After removal of supernatant, 3 mL of HI-FBS were added to the cell pellet, mixed and centrifuged for 5 min at 400×g. Supernatant was removed and cells were resuspended in BD stain buffer at 2×10\hat{ }6 cells/mL and incubated on ice or 4 C protected from light. Human pan T cells were thawed at 37 C and transferred gently into a conical tube containing 15 mL of warm or RT culture media (RPMI+10% FBS). […] Cells were harvested by centrifugation at 400×g for 5 min and resuspended in culture media (RPMI+10% HI-FBS). Pan T-cells (without staining) were prepared at 2×10\hat{ }6 cells/mL in flow staining buffer. Equal volumes of CFSE stained Jurkat-CD3-negative cells and unstained T-cells (CD3-positive) cells were mixed and plated 50 uL/well into assay plates. 50 uL/well neat bacterial supernatant samples and control sample (CD3W36 ScFv) were added to each well and plates were incubated 1 hr at 4 C or. Cells were harvested by centrifugation at 400×g for 4 min and 150 uL staining buffer were added to all wells, followed by centrifugation at 400×g for 4 min to pellet cells. To each well, 150 uL staining buffer were added followed by centrifugation at 400×g for 4 minutes to pellet cells.

T1 sequence (P07766 23-207 limits assumed): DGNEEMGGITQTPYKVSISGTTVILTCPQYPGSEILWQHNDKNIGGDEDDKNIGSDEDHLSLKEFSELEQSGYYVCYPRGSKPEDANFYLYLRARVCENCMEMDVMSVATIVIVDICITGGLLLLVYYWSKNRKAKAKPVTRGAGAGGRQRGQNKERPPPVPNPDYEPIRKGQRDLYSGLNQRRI

Binder | % Binding retained on T-cells, 55° C. | % Binding retained on T-cells, 60° C. | % Binding retained on T-cells, 65° C. | % Binding retained on T-cells, RT
B1 | 0.991 fraction | 0.906 fraction | 0.0805 fraction | 1 fraction
B2 | 1.05 fraction | 0.997 fraction | 0.296 fraction | 1 fraction
B3 | 0.786 fraction | 1.04 fraction | 0.198 fraction | 1 fraction
B4 | 1.08 fraction | 1.48 fraction | 0.11 fraction | 1 fraction
B5 | 1 fraction | 0.996 fraction | 0.185 fraction | 1 fraction
B6 | 1.17 fraction | 0.741 fraction | 0.241 fraction | 1 fraction
B7 | 1.05 fraction | 0.808 fraction | 0.174 fraction | 1 fraction
B8 | 1.14 fraction | 1.33 fraction | 0.156 fraction | 1 fraction

Each binder was assayed against T2, TRCW5 antigen (CD3δε-Fc-Avi) (biotinylated (site not stated)) (assay: ELISA after heat).
T2 construct: also called recombinant CD3
T2 sequence (chain, as listed by the source mutant limits assumed): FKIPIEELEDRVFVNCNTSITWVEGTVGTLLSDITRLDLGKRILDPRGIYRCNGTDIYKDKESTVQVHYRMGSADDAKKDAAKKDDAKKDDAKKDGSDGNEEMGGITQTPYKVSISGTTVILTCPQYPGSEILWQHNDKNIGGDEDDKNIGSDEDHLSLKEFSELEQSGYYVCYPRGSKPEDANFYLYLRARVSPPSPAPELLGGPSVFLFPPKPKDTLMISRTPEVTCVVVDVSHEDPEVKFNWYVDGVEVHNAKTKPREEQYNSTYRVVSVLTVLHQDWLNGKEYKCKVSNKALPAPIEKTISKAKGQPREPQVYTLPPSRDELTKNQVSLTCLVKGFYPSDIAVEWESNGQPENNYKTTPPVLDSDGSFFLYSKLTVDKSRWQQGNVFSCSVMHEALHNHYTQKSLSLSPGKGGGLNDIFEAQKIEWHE

Binder | % Retained 55° C. | % Retained 60° C. | % Retained 65° C.
B1 | 100% | 88% | 4%
B2 | 111% | 105% | 28%
B3 | 103% | 102% | 14%
B4 | 114% | 109% | 17%
B5 | 108% | 92% | 11%
B6 | 111% | 107% | 33%
B7 | 112% | 110% | 20%
B8 | 115% | 112% | 48%

Reference: patent US20250145711A1 (Janssen / Centocor, published 2025)
